Laboratory results taken from patent US20110269161.

Key:
[1] = tested on: T1, peptide F6 (RIRTQSFSLQPFR), derived from nitric-oxide synthase, endothelial (Ser1176)
T1 sequence: RIRTQSFSLQPFR

[2] = tested on: T2, peptide C6 (TKRSGSVYEPPFR), derived from phosphorylase b kinase regulatory subunit beta (Ser26)
T2 sequence: TKRSGSVYEPPFR

[3] = tested on: seven peptides sharing a common motif of [S/T]-Pro and clear upregulation by G2/M arrest
[4] = tested on: T3, peptide A6 (RPGPQSPGSPPFR), derived from neutrophil cytosol factor 1
T3 sequence: RPGPQSPGSPPFR

[5] = tested on: T4, peptide C2 (IPTGTTPQRKPFR), derived from kinesin-like protein kif11 (Thr927)
T4 sequence: IPTGTTPQRKPFR

[6] = tested on: T5, peptide B11 (LKLSPSPSSRPFR), derived from lamin-b1 (Ser392)
T5 sequence: LKLSPSPSSRPFR

[7] = tested on: peptide H5 (EYDRLYEEYTPFR), derived from Phosphatidylinositol 3-kinase regulatory subunit p85α(Tyr-467)/p55γ(Tyr-199)

“Akt1 (full length), purified human active kinase” was tested, and the “peptide phosphorylation, 100 µM peptide reacted individually” value [1] was “both RSK and Akt demonstrated strong phosphorylation” and the “in vitro peptide phosphorylation by purified kinase (KAYAK, LC-MS)” value [2] was “this peptide was not significantly phosphorylated by Akt”.
For “Cdc2/cyclin B1 (full length), purified complex”, the “phosphorylation by purified kinase complex (KAYAK profiling of 90 peptides)” value [3] was “purified Cdc2/Cyclin B1 complex phosphorylated all 7 peptides along with 4 other up-regulated peptides”, the “phosphorylation by purified kinase complex (KAYAK profiling of 90 peptides)” value [4] was “purified Cdc2/Cyclin B1 complex phosphorylated all 7 peptides along with 4 other up-regulated peptides” and the “phosphorylation by purified kinase complex (KAYAK profiling of 90 peptides)” value [5] was “purified Cdc2/Cyclin B1 complex phosphorylated all 7 peptides along with 4 other up-regulated peptides”. For the same substance, the “phosphorylation by purified kinase complex (KAYAK profiling of 90 peptides)” value [6] was “purified Cdc2/Cyclin B1 complex phosphorylated all 7 peptides along with 4 other up-regulated peptides”.
With “Src (full length), purified human active kinase” the “in vitro kinase reaction with purified kinase” value [7] was “robust phosphorylation by Src but not EGFR”.
